# B1: Bovine lactoferrin: bovine lactoferrin; lactoferrin supplied by SIGMA (protein, UniProt P24627 20-708, looked up)
# Lactotransferrin: APRKNVRWCTISQPEWFKCRRWQWRMKKLGAPSITCVRRAFALECIRAIAEKKADAVTLDGGMVFEAGRDPYKLRPVAAEIYGTKESPQTHYYAVAVVKKGSNFQLDQLQGRKSCHTGLGRSAGWIIPMGILRPYLSWTESLEPLQGAVAKFFSASCVPCIDRQAYPNLCQLCKGEGENQCACSSREPYFGYSGAFKCLQDGAGDVAFVKETTVFENLPEKADRDQYELLCLNNSRAPVDAFKECHLAQVPSHAVVARSVDGKEDLIWKLLSKAQEKFGKNKSRSFQLFGSPPGQRDLLFKDSALGFLRIPSKVDSALYLGSRYLTTLKNLRETAEEVKARYTRVVWCAVGPEEQKKCQQWSQQSGQNVTCATASTTDDCIVLVLKGEADALNLDGGYIYTAGKCGLVPVLAENRKSSKHSSLDCVLRPTEGYLAVAVVKKANEGLTWNSLKDKKSCHTAVDRTAGWNIPMGLIVNQTGSCAFDEFFSQSCAPGADPKSRLCALCAGDDQGLDKCVPNSKEKYYGYTGAFRCLAEDVGDVAFVKNDTVWENTNGESTADWAKNLNREDFRLLCLDGTRKPVTEAQSCHLAVAPNHAVVSRSDRAAHVKQVLLHQQALFGKNGKNCPDKFCLFKSETKNLLFNDNTECLAKLGGRPTYEEYLGTEYVTAIANLKKCSTSPLLEACAFLTR
# B2: turkey lysozyme: turkey lysozyme (protein, UniProt P00703 19-147, looked up)
# Lysozyme C: KVYGRCELAAAMKRLGLDNYRGYSLGNWVCAAKFESNFNTHATNRNTDGSTDYGILQINSRWWCNDGRTPGSKNLCNIPCSALLSSDITASVNCAKKIASGGNGMNAWVAWRNRCKGTDVHAWIRGCRL
# B3: human lysozyme: human lysozyme (protein, UniProt P61626 19-148, looked up)
# Lysozyme C: KVFERCELARTLKRLGMDGYRGISLANWMCLAKWESGYNTRATNYNAGDRSTDYGIFQINSRYWCNDGKTPGAVNACHLSCSALLQDNIADAVACAKRVVRDPQGIRAWVAWRNRCQNRDVRQYVQGCGV
# B4: Human lactoferrin: human lactoferrin; lactoferrin supplied by SIGMA (protein, UniProt P02788 20-710, looked up)
# Lactotransferrin: GRRRSVQWCAVSQPEATKCFQWQRNMRKVRGPPVSCIKRDSPIQCIQAIAENRADAVTLDGGFIYEAGLAPYKLRPVAAEVYGTERQPRTHYYAVAVVKKGGSFQLNELQGLKSCHTGLRRTAGWNVPIGTLRPFLNWTGPPEPIEAAVARFFSASCVPGADKGQFPNLCRLCAGTGENKCAFSSQEPYFSYSGAFKCLRDGAGDVAFIRESTVFEDLSDEAERDEYELLCPDNTRKPVDKFKDCHLARVPSHAVVARSVNGKEDAIWNLLRQAQEKFGKDKSPKFQLFGSPSGQKDLLFKDSAIGFSRVPPRIDSGLYLGSGYFTAIQNLRKSEEEVAARRARVVWCAVGEQELRKCNQWSGLSEGSVTCSSASTTEDCIALVLKGEADAMSLDGGYVYTAGKCGLVPVLAENYKSQQSSDPDPNCVDRPVEGYLAVAVVRRSDTSLTWNSVKGKKSCHTAVDRTAGWNIPMGLLFNQTGSCKFDEYFSQSCAPGSDPRSNLCALCIGDEQGENKCVPNSNERYYGYTGAFRCLAENAGDVAFVKDVTVLQNTDGNNNEAWAKDLKLADFALLCLDGKRKPVTEARSCHLAMAPNHAVVSRMDKVERLKQVLLHQQAKFGRNGSDCPDKFCLFQSETKNLLFNDNTECLARLHGKTTYEKYLGPQYVAGITNLKKCSTSPLLEACEFLRK
# Assays:
# VERO cells = assay: Toxicity expressed as a minimum toxic dose on 50% of the cells; format: cell-based, African green monkey
# Method: It was carried out as Example 1 except that different amounts of bovine and human lactoferrin were added to the single layers of VERO cells infected with HSV1.
# *Toxicity expressed as a minimum toxic dose on 50% of the cells.
# HSV1 [1] = assay: Inhibition of HSV1 viral plaques on VERO cells; format: cell-based, Herpes Simplex Virus type 1; settings: for MDI50 (dose inhibiting 50% of the viral plaques on VERO cells): HSV1; for Inhibition (%) of viral plaques with various lysozymes: percentage of the control ± standard deviation
# HSV1 [2] = settings: Current Microbiology 1984; cited from earlier work
Molecule,MTD50 (minimum toxic dose on 50% of the cells) (VERO cells) [mg/mL],MDI50 (dose inhibiting 50% of the viral plaques on VERO cells) (HSV1 [1]) [mg/mL],antiviral / anti-herpetic (HSV1) activity of lysozymes (HSV1 [2]),Inhibition (%) of viral plaques with various lysozymes (HSV1 [1]; 0.5 mg/ml) [%],Inhibition (%) of viral plaques with various lysozymes (HSV1 [1]; 1 mg/ml) [%],Inhibition (%) of viral plaques with various lysozymes (HSV1 [1]; 2 mg/ml) [%],Inhibition (%) of viral plaques with various lysozymes (HSV1 [1]; 4 mg/ml) [%],Inhibition (%) of viral plaques with various lysozymes (HSV1 [1]; 6 mg/ml) [%],Inhibition (%) of viral plaques with various lysozymes (HSV1 [1]; 8 mg/ml) [%]
B1,2,0.25,–,–,–,–,–,–,–
B2,–,–,anti-herpetic (HSV1) activity,10 ± 3,45 ± 5,55 ± 6,68 ± 5,80 ± 4,89 ± 5
B3,–,–,anti-herpetic (HSV1) activity,18 ± 3,45 ± 3,59 ± 4,70 ± 4,79 ± 6,90 ± 5
B4,3,0.25,–,–,–,–,–,–,–

# From US6329339A, “Pharmaceutical antiviral composition comprising glycyrrhizic acid and at least one protein endowed with antiviral activity” (priority 1997, dated 2001)
